Data on three molecules can be found in publication PMC11405125 (Briefings in Bioinformatics, 2024).

The target in this assay is HIV-1 Bal gp140 (Human immunodeficiency virus 1, isolate …, UniProt Q2MKA8, strain). Description: ELISA. In general terms: In an ELISA, binding on a coated surface is turned into a signal by an enzyme label.

B1: HuJ3 E44R (VHH)
VHH: EVQLVESGGGLVQPGGSLRLSCAASGSIFNQYAMAWFRQAPGKRREFVAGMGAVPHYGEFVKGRFTISRDNSKNTVYLQMNSLRAEDTAVYYCARSKSTYISYNSNGYDYWGQGTLVTVS
For orientation: EC50 means the concentration needed to bring the measured effect to its halfway point. Higher therefore signals weaker potency. In the case of B1, it took 1.7 nM to reach a half-maximal effect (EC50). This counts as single-digit nanomolar.

B2: HuJ3 S102R (VHH)
VHH: EVQLVESGGGLVQPGGSLRLSCAASGSIFNQYAMAWFRQAPGKEREFVAGMGAVPHYGEFVKGRFTISRDNSKNTVYLQMNSLRAEDTAVYYCARSKSTYIRYNSNGYDYWGQGTLVTVS
In turn, B2 registered an EC50 of 10.4 nM. Compared with the last molecule, the EC50 is about 6.1-fold higher.

B3: HuJ3 V54E (VHH)
VHH: EVQLVESGGGLVQPGGSLRLSCAASGSIFNQYAMAWFRQAPGKEREFVAGMGAEPHYGEFVKGRFTISRDNSKNTVYLQMNSLRAEDTAVYYCARSKSTYISYNSNGYDYWGQGTLVTVS
The molecule B3 returned an EC50 of 2.31 nM.
